Reference: the supplement of paper PMC7877785
± gives the uncertainty stated by the source.

Test: self-splicing fitness, log relative to wild type (ln ratio); higher = more splicing; Tetrahymena group I intron in knt gene, E. coli kanamycin selection, DiMSum; sequences stand for … in CUCUCU…GGAGGGAAAAGUUAUCAGGCAUGCACCUGGUAGCUAGUCUUUAAACCAAUAGAUUGCAUCGGUUUAAAAGGCAAGACCGUCAAAUUGCGGGAAAGGGGUCAACAGCCGUUCAGUACCAAGUCUCAGGGGAAACUUUGAGAUGGCCUUGCAAAGGGUAUGGUAAUAAGCUGACGGACAUGGUCCUAACCACGCAGCCAAGUCCUAAGUCAACAGAUCUUCUGUUGAUAUGGAUGCAGUUCACAGACUAAAUGUCGGUCGGGGAAGAUGUAUUCUUCUCAUAAGAUAUAGUCGGACCUCUCCUUAAUGGGAGCUAGCGGAUGAAGUGAUGCAACACUGGAGCCGCUGGGAACUAAUUUGUAUGCGAAAGUAUAUUGAUUAGUUUUGGAGUACUCGUGGUCG
Summary of the method: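 Colonies from six replicate transformations of E. coli BL21(DE3) were pooled and amplicon-sequenced on an Illumina HiSeq 2500. The library placed an intron with all eight P1ex-region nucleotides randomised inside the knt kanamycin-resistance gene on pET-22b(+), and cells grew overnight at 37°C or 30°C on LB agar with or without 25 μg/mL kanamycin (plus 100 μg/mL carbenicillin, 50 μM IPTG, 0.2% rhamnose). Fitness is the DiMSum error-weighted combination of wild-type-normalised replicate fold changes, kanamycin versus none.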

| Sequence | self-splicing fitness (ln) (30 °C) | self-splicing fitness (ln) (37 °C) |
| --- | --- | --- |
| GCAGAGCAAUAUUACGGGUA | -3.16 ± 0.18 | -3.68 ± 0.33 |
| GCAGAGCAAUAUUACGGUUA | -2.95 ± 0.17 | -2.17 ± 0.16 |
| GCAGAGCAAUAUUACGUAAG | -1.79 ± 0.16 | -1.88 ± 0.23 |
| GCAGAGCAAUAUUACGUACA | -2.86 ± 0.28 | -0.806 ± 0.24 |
| GCAGAGCAAUAUUACGUACG | -2.22 ± 0.45 | -1.77 ± 0.35 |
| GCAGAGCAAUAUUACGUACU | -3.98 ± 0.3 | -2.29 ± 0.32 |
| GCAGAGCAAUAUUACGUCAC | -3.67 ± 0.34 | -2.48 ± 0.32 |
| GCAGAGCAAUAUUACGUGAA | -3.15 ± 0.14 | -1.59 ± 0.19 |
| GCAGAGCAAUAUUACGUGAU | -2.24 ± 0.16 | -1.5 ± 0.18 |
| GCAGAGCAAUAUUACGUUAU | -2.65 ± 0.46 | -2.44 ± 0.44 |
| GCAGAGCAAUAUUACGUUGU | -5.06 ± 0.46 | -3.02 ± 0.29 |
| GCAGAGCAAUAUUACGUUUG | -3.98 ± 0.27 | -2.77 ± 0.25 |
| GCAUAGCAAUAUUACGAAAU | -1.98 ± 0.13 | -1.31 ± 0.12 |
| GCAUAGCAAUAUUACGACAG | -3.41 ± 0.26 | -2.71 ± 0.33 |
| GCAUAGCAAUAUUACGACGU | -0.0199 ± 0.12 | 0.152 ± 0.12 |
| GCAUAGCAAUAUUACGACUU | -0.481 ± 0.078 | -0.0367 ± 0.089 |
| GCAUAGCAAUAUUACGAGAU | -3.61 ± 0.46 | -2.13 ± 0.33 |
| GCAUAGCAAUAUUACGAGGC | -3.26 ± 0.43 | -1.27 ± 0.36 |
| GCAUAGCAAUAUUACGCAAC | -3.96 ± 0.33 | -2.6 ± 0.37 |
| GCAUAGCAAUAUUACGCACA | -0.886 ± 0.11 | 0.000212 ± 0.091 |
| GCAUAGCAAUAUUACGCGCA | -1.09 ± 0.12 | -0.397 ± 0.14 |
| GCAUAGCAAUAUUACGCGGC | -3.32 ± 0.33 | -2.38 ± 0.34 |
| GCAUAGCAAUAUUACGCGGG | -3.23 ± 0.14 | -0.875 ± 0.11 |
| GCAUAGCAAUAUUACGCUCG | -0.827 ± 0.11 | -0.165 ± 0.13 |

| Sequence | self-splicing fitness (ln) (30 °C) | self-splicing fitness (ln) (37 °C) |
| --- | --- | --- |
| GCAUAGCAAUAUUACGCUGU | -3.06 ± 0.17 | -1.69 ± 0.23 |
| GCAUAGCAAUAUUACGGAUU | -2.81 ± 0.11 | -1.29 ± 0.097 |
| GCAUAGCAAUAUUACGGCGU | -0.347 ± 0.091 | 0.0454 ± 0.089 |
| GCAUAGCAAUAUUACGGCUG | -1.97 ± 0.16 | -1.22 ± 0.18 |
| GCAUAGCAAUAUUACGGUAA | -2.31 ± 0.16 | -0.658 ± 0.15 |
| GCAUAGCAAUAUUACGGUAG | -3.52 ± 0.26 | -3.01 ± 0.3 |
| GCAUAGCAAUAUUACGGUCU | -1.57 ± 0.098 | -0.521 ± 0.092 |
| GCAUAGCAAUAUUACGGUGA | -0.491 ± 0.11 | 0.678 ± 0.13 |
| GCAUAGCAAUAUUACGUAUG | -2.85 ± 0.17 | -2.44 ± 0.26 |
| GCAUAGCAAUAUUACGUCAU | -3.5 ± 0.16 | -1.89 ± 0.098 |
| GCCAAGCAAUAUUACGAAUA | -2.96 ± 0.17 | -2.72 ± 0.18 |
| GCCAAGCAAUAUUACGACUC | -0.25 ± 0.08 | 0.136 ± 0.098 |
| GCCAAGCAAUAUUACGACUG | -4.32 ± 0.23 | -1.94 ± 0.15 |
| GCCAAGCAAUAUUACGACUU | -2.29 ± 0.15 | -1.68 ± 0.16 |
| GCCAAGCAAUAUUACGAUGA | -3.12 ± 0.19 | -1.66 ± 0.12 |
| GCCAAGCAAUAUUACGCACC | -0.566 ± 0.22 | 0.932 ± 0.41 |
| GCCAAGCAAUAUUACGCCAC | – | -1.25 ± 0.27 |
| GCCAAGCAAUAUUACGCCUA | -0.609 ± 0.16 | -0.61 ± 0.18 |
| GCCAAGCAAUAUUACGCGUG | -3.46 ± 0.11 | -1.97 ± 0.1 |
| GCCAAGCAAUAUUACGCUCC | -0.474 ± 0.14 | 0.717 ± 0.17 |
| GCCAAGCAAUAUUACGCUUC | -2.75 ± 0.14 | -1.17 ± 0.16 |
| GCCAAGCAAUAUUACGCUUU | -0.998 ± 0.051 | -1.18 ± 0.072 |
| GCCAAGCAAUAUUACGGAGU | -0.992 ± 0.066 | -1.57 ± 0.09 |
| GCCAAGCAAUAUUACGGCCA | -1.42 ± 0.21 | -1.18 ± 0.25 |

| Sequence | self-splicing fitness (ln) (30 °C) | self-splicing fitness (ln) (37 °C) |
| --- | --- | --- |
| GCCAAGCAAUAUUACGGGCC | – | -2.13 ± 0.32 |
| GCCAAGCAAUAUUACGGGGG | -4.11 ± 0.19 | -2.35 ± 0.14 |
| GCCAAGCAAUAUUACGGGGU | -4.5 ± 0.18 | -2.55 ± 0.14 |
| GCCAAGCAAUAUUACGGUCA | -1.59 ± 0.078 | -0.271 ± 0.067 |
| GCCAAGCAAUAUUACGGUUA | -0.632 ± 0.072 | -0.00086 ± 0.07 |
| GCCAAGCAAUAUUACGUAGG | -3.32 ± 0.18 | -1.78 ± 0.17 |
| GCCAAGCAAUAUUACGUCAG | -3.6 ± 0.23 | -2.73 ± 0.28 |
| GCCAAGCAAUAUUACGUGCA | -1.63 ± 0.087 | -0.541 ± 0.09 |
| GCCAAGCAAUAUUACGUUGA | -2.53 ± 0.065 | -1.39 ± 0.065 |
| GCCCAGCAAUAUUACGACAG | -3.6 ± 0.19 | -1.78 ± 0.14 |
| GCCCAGCAAUAUUACGACCC | -0.0226 ± 0.14 | -0.0967 ± 0.21 |
| GCCCAGCAAUAUUACGACCU | -1.07 ± 0.12 | -0.407 ± 0.15 |
| GCCCAGCAAUAUUACGACGA | -1.31 ± 0.15 | -0.475 ± 0.15 |
| GCCCAGCAAUAUUACGAGGU | -3.81 ± 0.2 | -3.07 ± 0.22 |
| GCCCAGCAAUAUUACGAGUU | -1.13 ± 0.048 | -0.432 ± 0.066 |
| GCCCAGCAAUAUUACGAUAG | -2.76 ± 0.14 | -3.33 ± 0.2 |
| GCCCAGCAAUAUUACGCCUU | -1.02 ± 0.081 | 0.189 ± 0.088 |
| GCCCAGCAAUAUUACGCGAG | -2.72 ± 0.11 | -1.73 ± 0.13 |
| GCCCAGCAAUAUUACGCGGG | -3.71 ± 0.2 | -2.31 ± 0.22 |
| GCCCAGCAAUAUUACGCUCU | 0.00415 ± 0.05 | 0.138 ± 0.066 |
| GCCCAGCAAUAUUACGCUUC | -1.18 ± 0.089 | -1.33 ± 0.091 |
| GCCCAGCAAUAUUACGGAAU | -0.828 ± 0.056 | 0.223 ± 0.078 |
| GCCCAGCAAUAUUACGGGUA | -1.34 ± 0.061 | -0.511 ± 0.06 |
| GCCCAGCAAUAUUACGGGUU | -3.01 ± 0.12 | -3.4 ± 0.19 |

| Sequence | self-splicing fitness (ln) (30 °C) | self-splicing fitness (ln) (37 °C) |
| --- | --- | --- |
| GCCCAGCAAUAUUACGGUCG | -1.61 ± 0.083 | -1.31 ± 0.096 |
| GCCCAGCAAUAUUACGGUCU | -1.97 ± 0.063 | -0.732 ± 0.081 |
| GCCCAGCAAUAUUACGUAGU | -0.118 ± 0.051 | -0.0932 ± 0.066 |
| GCCCAGCAAUAUUACGUCUG | -3.86 ± 0.14 | -2.73 ± 0.17 |
| GCCCAGCAAUAUUACGUGCU | -3.14 ± 0.16 | -2.88 ± 0.21 |
| GCCCAGCAAUAUUACGUUCC | -1.28 ± 0.096 | -0.603 ± 0.14 |
| GCCCAGCAAUAUUACGUUGC | -1.11 ± 0.063 | -0.368 ± 0.094 |
| GCCGAGCAAUAUUACGAAUG | -3.59 ± 0.3 | -2.75 ± 0.27 |
| GCCGAGCAAUAUUACGACUU | -1.04 ± 0.31 | -0.625 ± 0.34 |
| GCCGAGCAAUAUUACGAGGA | -1.32 ± 0.11 | -0.747 ± 0.1 |
| GCCGAGCAAUAUUACGAUCA | -1.91 ± 0.12 | -1.69 ± 0.15 |
| GCCGAGCAAUAUUACGCAAA | – | -1.05 ± 0.34 |
| GCCGAGCAAUAUUACGCAAG | -2.91 ± 0.44 | -1.25 ± 0.36 |
| GCCGAGCAAUAUUACGCCUG | -3.59 ± 0.23 | -2.03 ± 0.22 |
| GCCGAGCAAUAUUACGCGGA | -1.04 ± 0.17 | 0.224 ± 0.14 |
| GCCGAGCAAUAUUACGCGUG | -2.05 ± 0.088 | -1.32 ± 0.091 |
| GCCGAGCAAUAUUACGCUCA | -0.335 ± 0.17 | -0.829 ± 0.21 |
| GCCGAGCAAUAUUACGGAGC | -2.69 ± 0.44 | – |
| GCCGAGCAAUAUUACGGCCC | -2.4 ± 0.19 | -1.93 ± 0.24 |
| GCCGAGCAAUAUUACGGCGC | -1.48 ± 0.23 | -0.221 ± 0.23 |
| GCCGAGCAAUAUUACGGGAA | -1.01 ± 0.073 | -0.813 ± 0.088 |
| GCCGAGCAAUAUUACGGGCA | -2.24 ± 0.25 | -0.776 ± 0.17 |
| GCCGAGCAAUAUUACGGGCU | -3.27 ± 0.23 | -2.43 ± 0.27 |
| GCCGAGCAAUAUUACGGUAA | -0.184 ± 0.11 | -0.414 ± 0.091 |
